Assay results: the supplement of paper PMC12636428

Test system: Saccharomyces cerevisiae
Assay: transcriptional activation domain activity (GFP:mCherry ratio, weighted mean of sorted bins, harmonized to initial dataset scale) (arbitrary fluorescence ratio units); higher = stronger transcriptional activation
Details: beta-estradiol 1 µM; induction time 4 h
Procedure, shortened: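 Activation activity, the read-weighted mean of bin median fluorescence averaged across barcodes, was linearly mapped onto the scale of the initial dataset. It was measured for barcoded protein tiles fused to an estradiol-inducible synthetic transcription factor at URA3 in GFP-reporter yeast diploids. Cultures diluted 1:5 into SC with 1 uM beta-estradiol were held 4 hours at 30 °C, sorted into 8 bins by GFP:mCherry ratio, and barcode-sequenced, and tiles under 50 reads were discarded.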

| Sequence | transcriptional activation domain activity |
| --- | --- |
| VGLYSLCIVSGILFPLYICCWREDFLIQNFVHRSLFTLVFMLLFLLGLIFLEF | 56900 |
| VGPLSLDIILNKYDQDTELCAIVHESRRMLVRFYDIVKQNAMVIYSVFLWIPT | 50900 |
| VGRLVWFVTLLHVLFWVVQVLKDRRALTGKLVFAYVWQYQKFRFAWVAFLSMT | 75200 |
| VGRVTDKSSLVYDWPFDESIERNFSTTATAATGESKFDINDNCNRINSKSYSK | 45900 |
| VGSAINTRLTTPKLVDSPKRPGCLSISRKDQHETYLSLLMRLVVASKMCLSAY | 50800 |
| VGSLVYVTRYSEHLLVSGEFGPELLGAGAYYGGMLWFFFSSQNYRLLFHWQFW | 49800 |
| VGSWTFGSIMVFGFSYLALTVLPNLCLNCPYSTPVSEMSWHLSHRLLLFILLL | 31800 |
| VGTLHENLSSSHFMIPDVDQFNSFEDFFQDFFDSLKPNSQKMFTSDKKTEQTT | 106000 |
| VGTVMFGLACASSTQVLLSLIGGWNVGFFISLLAVTIFAVLTKIIPWVWYIYS | 58300 |
| VGVWIWVRVDLLSYRKAGFIDWLFTDVPPKLALIAIFNVHILHTLLLALQWYT | 55400 |
| VHANQYYQLDVEIFKSSLDMELLGLLWNKYWINTLSQSPLISVSLFCYGHIFI | 57800 |
| VHEQLEVALRRWRISSIMEGTRVRDVLIRLPLAHSFASLSSKVNILLHEMLFE | 45700 |
| VHEVRAKAVKLVTASDSDDESGAGAGKAKKSEWKTQGVGPLRLLKNKSTGAVR | 32400 |
| VHFIYHHSFRMRFYYFFLLSFLQAGRSIGFLIHGFWCFLLLIAFFVYPFLRFV | 64600 |
| VHGSSFLVRYFVYITPLVLVILIPLLLGALLFKHASVAGVEMVWFCIWLEIVW | 50100 |
| VHLGVLFTLSIPYVRLWLIPRLFVCIFVRAFLFLLLFSGIVYPEFFFFFFFLR | 40800 |
| VHLLLTVFFHYVPTPDPFFTNLLLCPLDGLLRANSVTLALSLLSRPSINPLLV | 58300 |
| VHLTLNLGTYLRVISIGKPFPMWLDYWYNYGYILYCAILQLYELWQIVILIWL | 60100 |
| VHNNSNNSNNSNISASDYTVANNSTSNNNNNNNNNNNNNNNIHPNQFTAAANM | 39200 |
| VHPIVCLVVCLLGHIWSFHVYYCLLKIGLLFSLFPLVRLARCAIFYRRCFSYF | 40200 |
| VHVNDMVGFKFMSDKHEIFSKVLLTDVLKGTLAHQWLGYNVLFSNGSEWHFFR | 59100 |

| Sequence | transcriptional activation domain activity |
| --- | --- |
| VIDGSYTTSLKMILFLLAISGQNLLFFFILISLTFLLFLFSTCLCMILLDALI | 22100 |
| VIEGNTSPAVGIEMCHVMLCSLVKELYQRVAASGMTFVLSVSVECLLSQTLQT | 31800 |
| VIEKLFWRVSALYICTHQFLLWALFMIRDYLLSKYPGSQLVLRCHMVLKIMLF | 46400 |
| VIFSFLVLNFFYFSISFFLSSSFISYFHFHLSLFPFPFSFVFLIHYLFSFIVN | 26300 |
| VIGGGATGSGVAVDAASRGLKVALVERDDFSSGTSSKSTKLVHGGVRYLQKAV | 69700 |
| VIHLMNMGQVSILFIHRFIYGVVPLFEIVSCSFWPLLVSLWHLDYILIYLIMF | 46300 |
| VIHTTAKPYKLHFSNTLLVSTVGLLALLVTTMVFVPWNNYYLPRKWGVFLICF | 42700 |
| VIIQLQKLFLVSISLKLVQRISSLNQLFKTSVASLPAIGNLFLLWATLFIFFA | 53000 |
| VIITLICRYEMHSTRLRLRGMSILSFLVNYTGRSMCNIKTTGFLDMIFALRQV | 47100 |
| VIIVLIFAVACHLAFGTSVVVFIWRTALLRDISKLSRTNIMPMCISQVVADVL | 42900 |
| VILGYCSLFVWFAVCGFCFLCFCVFVFLCFLFFVFFWHSSLGYLAGLAIIITF | 18300 |
| VILLPLSFSLWYCLLFAYGILVSLYLLTLKNPTEINFLGFYIWKYENAFWVLM | 60100 |
| VILYLLMLIGNVTVVSWIVSLFFLSRKSYLKLGFKMVLVRKWYFKNVCQYVDY | 67400 |
| VIMCTALGIKSVKFEFANLCLVSIEHIFALFFYPMAVIICPSFLLHIATFFYI | 83900 |
| VIRGLEELVYLDIRLPFQVEFLNMNPLLLGPACILRSMTLVILSSDGCFPTSR | 54000 |
| VISDSEDEKPPAKKAKTEEKAEKEEAKEDPEAKAKAVKEKEEAALKLATTRIL | 40700 |
| VISTLYHGPQIWVPILVSTGLLAIFAEILPQYFIPRQAISWGYYCWPLIWGCM | 36700 |
| VIVIVMLFFLFYFNRLLGFVISKIVSYWTWKLYSAHIEIESIKFALLGGRISF | 55200 |
| VIYRIDKDELTTGMLLVRNNLVELMAASTGPAAHLRVLVVDLVAPSFRSIPRG | 44400 |
| VIYSHRYVFHKKKGLRHIHVLNGWYVLSRIIAVYVLQDFLGEGSSVVVIAFLR | 58700 |
| VIYTSFFLYIYTPFIPFFFLFFFFLLLIPTFYIYMKRVLYYGLILWWFIQYSL | 51700 |

| Sequence | transcriptional activation domain activity |
| --- | --- |
| VKAAAPKRGGRKKKVEAKAEAGDEVEAAVFEKKEVEEEEKEKGGEKEVKETVE | 9930 |
| VKAVVICLLICETLQITFFFCATYWLLIDHFGDFNALVVITWHESVQLLAGYL | 45200 |
| VKEGGKDLVQLPKSWVEIDGEILVRAVLLLLHPGATLYGPVPMKIARNWPFAS | 60700 |
| VKEKTDQAKAEDRKRAEKRGEQYEDSSDEEKERRRKARQKAKQGGGTGAAKAP | 26200 |
| VKFRFLTYSRWLVLILYVFSWSFTIISMLLVTTNNANFTSCFLSIMVCDIFYS | 71700 |
| VKGAGKGKGKDDGKKNSMVLLLLCSLLSVNFMLGNYAPQLWILLLVPMSLAAP | 45000 |
| VKGGGDSRKVKGAESGQSGSGSGKQSGSRRRAVSSSRTRGSKEPDASIKSNGT | 35100 |
| VKHLKLSRDKSSPTFKFDSLYREILSSHPELMFILTAMLLWPDLVSDYHILRV | 30200 |
| VKHRVIHLLVVFVAFFFAVTPVYFDYLCCGSPLVLFSSTLGMIIHLILFFFCL | 49000 |
| VKHTYLMVTILLLFIFITMCCIMDNVRCIVALNNPGLDLGPPNSVIGILINAC | 18100 |
| VKKAAEDGEDEAEEKPAPKAKRGRKKAELDEDDEEEAQPAKKKAKKAAPKAAA | 21400 |
| VKKHYKLYYLDPGRTREFIAVSWFEVDILLVRWCSTTEYYTMTVFMTSLKKLN | 50000 |
| VKKKGGSGGIDAGDIWGCNRRGSNFVEVRSMLAKEGGRLLVNVLRDMIDGTVR | 65900 |
| VKPASRASAKPPSTTGAKKPASRASSRKPASKVGKEDKENGDAAAASAAAPDT | 25100 |
| VKPEAKAEHIKENTKPKPLGTKRANKAAEAPAPAAKKPVKKAAVPKKAAAAPA | 59600 |
| VKPIPPRPSTGLRYRVETLIGITGYRMAKFRPSWSEVVLACLNVLWRPQFFFV | 55000 |
| VKPRPLPLPVLIAKALREKGLVYFFRSVRVSGSGTAEVVRGKWYMNFLPTLAR | 73200 |
| VKRVAFGCLSTILALYLVHKYTYEHPFILSDNRHYSFYVWKKIYRRHWMVRYC | 61000 |
| VKVVRGTGKLIFLSRCIEPWLPKNNAYLLSLPWLDWKSLVLTVLYGIKGYCFL | 62600 |
| VKWAKETRGEQRKRLHIVPVGIVYTNKSQYQSRVSSRVHICVHVEAFVQERTS | 52100 |
| VLAGYVVHVFGGDYFHSFSMTFFTFIWTLLFMGYIFITRDYIPKCYFYWLHIA | 54600 |

| Sequence | transcriptional activation domain activity |
| --- | --- |
| VLAMVAQIRTGLWLLHYRDFMLRELCYDQDLYILQTALIILEPDLVFLLQFFE | 33500 |
| VLCTCVPRQLVEPLVKLRKIHRRLAMTWIAALDYFASYRLVPFIRMIMELESV | 44700 |
| VLDLVCIKFLSLFTFYIFLLLYLSIFQIICFFLFPFLFLFFPSCPLRRFLFSY | 47000 |
| VLEQLNLINHFYQFSLKFFLDIFEYVLRQNPNLQNVTDHHARREILFNDIFLV | 33600 |
| VLFAVAVYMNHVPTAILWMSCVSAKLFSFCSQTFFVIRVYFLPWRFDLVFIPL | 37600 |
| VLFSQRRRWINSTVHNLLELVILPELCGFCCFSMRFFVFIDLLGTILTYLVVV | 61100 |
| VLGAAKCIPFLRWPTLHLSILLSWWDADTLVRLLKALAELHLRSITITLKIGI | 55700 |
| VLGCAKIGVVLLSLWHMFHFAHYINVSPTEIFCISPVLGSWSWETLCFMMTVV | 49600 |
| VLGELSRFAGGPEETPIHIGTLYYLNVHTAPPYFWQRCQALLYRNTLLLSWIA | 52200 |
| VLGNLLCAILFRNELWMRFLYLVFIYGLRGVSWAPLSIKYAATSILQHVGGIH | 29200 |
| VLGQISTVLIQYLFNPAYDLLSYCFNWYLDQCIVYLLLSIILSAPTIGAFVYV | 46400 |
| VLGSEGSNLRCTRYLVVGGPPAMGREVQRFRECECTVMRMTVLIRGAVMWGCR | 57500 |
| VLHESCGSPVFLLFSCFILLSLWRIVGRISLSILLVLRSLFCCYFPSLLFWLW | 36900 |
| VLHVLILHLPCCPSPNFLLAPDTTLPLSTLLWYEFSRTLFPVLLFYLPAFLIS | 72100 |
| VLICAHGQQQMGSGVFLGQDLLSRARMESIFCRSTVPVIVITTAYCSGLWAVP | 55900 |
| VLKALWSFAYTFGLFIFCNGSIYYFVARIFGSYYRVLDSPIVGFRWSNIHLFL | 57100 |
| VLLCQMEDAVLSSSFAIKANTAMSQNTAEEFFNISEEEALNQLLENNNFDAFW | 140000 |
| VLLFLFVWRWGRRAFWQLRGRGIIGSVVELYVNIRRILYGYFLRAPGVRNKVQ | 44100 |
| VLLHLNRYMSIFGNLQILILVGLTSCCRTSHIYHMVLLLVQQHTLHRRYVLHA | 69400 |
| VLLILGLGNPLCSRPVKLFEWMIAALVFAVLICMTMIIVKVNVVWSQAFNGFV | 45600 |
